Source: paper PMC7695701, “Mechanism and inhibition of Streptococcus pneumoniae IgA1 protease” (Nature Communications, 2020)

Target: T1, S. pneumoniae IgA1 protease catalytic region (IgA1P residues 665–1963), wild type (Streptococcus pneumoniae, UniProt Q59947)
T1 construct: Streptococcus pneumoniae IgA1 protease (M26 metalloprotease), catalytic region, residues 665-1963 of UniProt Q59947 / NCBI WP_000417171 (D39 and R6 strains); Thrombin cleavage site between MBP and IgA1P; also called IgA1P 665–1963; not shown: MBP, N-terminal, cleaved
T1 sequence (Q59947 665-1963): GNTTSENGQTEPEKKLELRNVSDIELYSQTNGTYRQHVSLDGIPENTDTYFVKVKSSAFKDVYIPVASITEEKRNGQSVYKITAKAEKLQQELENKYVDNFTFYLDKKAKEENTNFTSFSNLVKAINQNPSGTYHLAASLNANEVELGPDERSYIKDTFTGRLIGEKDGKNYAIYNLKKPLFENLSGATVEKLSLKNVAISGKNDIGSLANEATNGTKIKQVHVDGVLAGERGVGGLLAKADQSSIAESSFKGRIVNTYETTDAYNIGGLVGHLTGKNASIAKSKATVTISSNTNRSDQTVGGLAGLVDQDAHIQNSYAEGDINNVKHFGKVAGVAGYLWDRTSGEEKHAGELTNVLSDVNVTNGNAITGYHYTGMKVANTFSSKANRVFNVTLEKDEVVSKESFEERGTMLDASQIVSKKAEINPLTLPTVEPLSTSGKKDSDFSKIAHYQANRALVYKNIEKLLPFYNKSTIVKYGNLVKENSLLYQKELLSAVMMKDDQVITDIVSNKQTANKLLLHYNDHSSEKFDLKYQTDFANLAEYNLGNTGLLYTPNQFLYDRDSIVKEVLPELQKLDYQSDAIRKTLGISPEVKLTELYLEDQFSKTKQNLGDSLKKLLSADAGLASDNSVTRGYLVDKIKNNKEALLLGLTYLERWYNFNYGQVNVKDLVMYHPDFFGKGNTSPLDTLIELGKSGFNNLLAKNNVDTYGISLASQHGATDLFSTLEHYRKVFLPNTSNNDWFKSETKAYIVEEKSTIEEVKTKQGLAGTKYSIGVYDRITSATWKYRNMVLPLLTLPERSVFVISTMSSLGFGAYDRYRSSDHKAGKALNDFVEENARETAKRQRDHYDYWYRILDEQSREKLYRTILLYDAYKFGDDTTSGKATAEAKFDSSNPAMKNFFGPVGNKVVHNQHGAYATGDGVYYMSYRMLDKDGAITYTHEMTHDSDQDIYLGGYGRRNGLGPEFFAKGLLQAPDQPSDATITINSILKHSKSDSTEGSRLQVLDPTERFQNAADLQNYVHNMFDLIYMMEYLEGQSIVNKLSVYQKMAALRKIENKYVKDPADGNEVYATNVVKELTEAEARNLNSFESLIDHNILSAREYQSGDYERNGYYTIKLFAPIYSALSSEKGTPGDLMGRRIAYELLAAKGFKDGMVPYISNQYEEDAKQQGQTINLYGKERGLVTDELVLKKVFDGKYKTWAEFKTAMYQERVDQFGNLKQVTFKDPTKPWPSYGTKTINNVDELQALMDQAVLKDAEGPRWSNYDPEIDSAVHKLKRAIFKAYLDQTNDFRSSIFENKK
Assay: cryo-EM structure; wild type IgA1P (residues 665-1963) with the mAb #2 Fab fragment; same procedure as for the IgA1 complex but in the absence of EDTA; 20 mM HEPES, pH 7.4, 150 mM NaCl
Settings: both partners purified

B1: mAb #2 Fab fragment (neutralizing murine monoclonal antibody against IgA1P) (Fab, V domains shown)
VH: EVQLQQSGPELEKPGASMKISCKASGYSFTGYNMNWVKQSNGKSLEWIGSIDPYTGGSNYNQKFMGKATLTVDKSSSTAYMQLKSLTSEDSAVYYCATVVGRVYAMDYWGQGTSVTVSS
VL: EEVLTQSPAIMSASPGEKVTMTCSASSSVSYIHWYQQKSNTSPKLWIYATSKLASGVPGRFSGSGSGNSYSLTISSMEAEDVATYYCFQGSGYPFTFGSGTKLEIK
notes: PDB 3RHW named as the most similar heavy chain; PDB 4HXA named as the most similar light chain; Raised against purified full-length protease; also called neutralizing mAb Fab fragment; source: hybridoma (Balb C mouse spleen cells fused with SP2/0 myeloma cells), IgG purified on Protein G columns; Fab excised with immobilized Ficin
  binding result: binds
